System: facial nerve of Lewis rats
Assay: Histological processing of muscle, mystacial pad and buccal branch nerve
Format: in vivo
Settings: mystacial pad, qualitative, 12-week endpoint
Experimental: This study was performed on the facial nerve of Lewis rats (Charles River, Wilmington, MA). Institutional approval was obtained before performing the study, and all animal procedures and housing were performed under the guidelines of the University of Pittsburgh Institutional Animal Care and Use Committee and in compliance with animal experimentation ethics policies.
Surgical procedures. Rats were placed under general anesthesia and maintained with Isoflurane. Preauricular/buccal incision lines were marked (FIG. 8A) and the nerve branches were exposed (FIG. 8B). A 5 mm segment of the marginal mandibular branch was removed to prevent cross-innervation contribution to the whisker movement^41. The buccal branch was then transected, and the resultant 2 mm defect was primarily repaired with 9-0 nylon sutures. […]
Histological processing. […] For the muscles, the mean muscle fiber pixel area was calculated from brightfield staining. […] Cross-sections of the main buccal branch distal to the injury site were analyzed for the number of axons. For S100, sections of the nerve distal and proximal to the transection and repair site were quantified separately and the ratio was used for comparison. All samples were blinded before quantification.

B1: GDNF: Recombinant human GDNF protein (R&D Systems), active agent of the microspheres (protein, UniProt P39905 78-211, looked up)
Glial cell line-derived …: SPDKQMAVLPRRERNRQAAAANPENSRGKGRRGQRGKNRGCVLTAIHLNVTDLGLGYETKEELIFRYCSGSCDAAETTYDKILKNLSRNRRLVSDKVGQACCRPIAFDDDLSFLDDNLVYHILRKHSAKRCGCI
modifications: in microspheres
**Q.** For B1, which “local adverse effects on whisker pad and intrinsic vibrissae muscles (morphology)” value is on record?
**A.** no local adverse effects

Source: patent US20250144275A1, “SYSTEM AND METHOD FOR COATING MEDICAL CONDUIT WITH PARTICLES AND USE THEREOF” (UNIVERSITY OF PITTSBURGH - OF THE COMMONWEALTH SYSTEM OF …, priority 2022, published 2025)
